# From patent US20260026500A1, “AGROCHEMICAL COMPOSITIONS” (BIOTALYS NV, priority 2022, published 2026)
# B1: VHH-1: VHH, SEQ ID NO 1; taken from WO2021198396 (protein)
# VHH: DVQLVESGGGLVQAGGSLRLSCAASRSIFSINAMDWYRQAPGKQREWVAGITRGGTTKYADSVKGRFTISRDNAKKKVYLQMNSLKPEDTAVYYCNVLRGEQPWTRDYWGQGTQVTVSS
# modifications: Synthetic VHH sequence.
# Test system: Botrytis cinerea
# Test: In vitro microtiter plate antifungal assay, confluence analysis (IncuCyte S3) of spore outgrowth
# Assay type: cell-based
# Source text: An “IC50 value”, “EC50”, “IC50”, “EC50” or “half maximal inhibitory concentration” as used herein interchangeably is a measure for the potency of a polypeptide or cell wall disrupting agent or compositions as described herein in inhibiting the growth of a fungal pathogen. In practice (also see example 1) the growth of a fungal pathogen is tracked by measuring the confluency of said fungal pathogen in for example a well of a 96-well plate or 384-well plate in the presence of a series of different concentrations of the tested polypeptide or cell wall disrupting agent or compositions as described herein. The confluency data at the time-point at which the non-treated or negative control reaches for example 90% saturation is then taken for each concentration of the polypeptide or cell wall disrupting agent or compositions as described herein. Said confluence values are then plotted against the log transformed concentration values yielding a sigmoidal curve. This sigmoid curve may serve to define an IC50 value. Where this IC50 is the concentration of the polypeptide or cell wall disrupting agent or compositions as described herein where the corresponding confluence value is 50% of the saturated value as estimated by the maximum of the sigmoidal function.
# The antifungal activity of VHHs, in combination with CWDEs, was assessed in an in vitro assay against the plant pathogenic fungus Botrytis cinerea. The current in vitro assay is a standard microtiter plate-based antifungal assay against Botrytis cinerea based on confluence analysis using an IncuCyte S3 System tracking the outgrowth of fungal spores overtime until saturation is reached. VHHs and CWDEs were assessed in serial dilutions, alone and in combination. The CWDEs were mixed with one VHH at a fixed ratio and serially diluted in 10 mM sterile HEPES buffer pH 7. […] Confluence was calculated with IncuCyte software version 2021C (Essen BioScience Inc.). […]
# The IC50 value for both the CWDE and VHH were determined separately (FIGS. 1A and 1B, top panel). […]
molecule,measurement,setting,value
B1,"IC50 value, determined separately","VHH or CWDE alone, confluence of Botrytis cinerea, 4-parameter log-logistic fit, CWDE protein concentration overestimated",105.2 mg/L
same,"% change, additive effect of component, buffer normalized to 100%","dose regime VHH-1 at 16.7 mg/L and CWDE at 25 mg/L, protease inhibitor 0.06 X",20.5%
same,"Estimate (% confluence), additive effect of component, difference from buffer","dose regime VHH-1 at 16.7 mg/L and CWDE at 25 mg/L, protease inhibitor 0.06 X, buffer 55.3",11.3 % confluence
